Results on 17 molecules are retold here after patent publication US5622828, “High-affinity oligonucleotide ligands to secretory phospholipase A2 (sPLA2)” (Nexstar Pharmaceuticals, Inc.).

Residue numbers refer to the chain shown, from its start. Like-named read-outs stand apart in the source and are kept apart here.

Data set [1] addresses T1, secretory phospholipase A2 (sPLA2) (Homo sapiens, UniProt P14555 P14555:21-144).
T1 sequence: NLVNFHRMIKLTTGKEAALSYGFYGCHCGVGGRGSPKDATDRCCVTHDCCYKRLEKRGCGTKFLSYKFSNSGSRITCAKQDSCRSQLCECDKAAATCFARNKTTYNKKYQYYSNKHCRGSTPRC
Briefly: filter; biphasic, Kd2 720 nM, mole fraction 0.40; TBSC, 37 C. To be noted: tags: supplied by Eli Lilly. The protocol: (§1) The nitrocellulose filter partitioning method was used as described in SELEX Patent Applications to determine the affinity of RNA ligands for sPLA_2 and for other promins. Filter discs (nitrocellulose/cellulose acetate mixed matrix, 0.45 µm pore size, Millipore) were placed on a vacuum manifold and washed with 5 ml of TBSC buffer under vacuum. Reaction mixtures, containing ^32P labeled RNA pools and sPLA_2, were incubated in TBSC for 5 minutes at 37° C., filtered, and then immediately washed with 5 ml TBSC. The filters were air-dried and counted in a Beckman liquid scintillation counter without fluor.
(§2) The dissociation constants for representative members of families I–VI, orphan and other ligands were determined by nitrocellulose filter binding experiments and are listed in Table III. Unlike random RNA, all tested ligands from the 2'OH SELEXes bound biphasically.

In data set [2] the target is T1, secretory phospholipase A2 (sPLA2). Briefly: filter; biphasic, Kd2 43 nM, mole fraction 0.25; TBSC, 37 C. The settings on record: tags: supplied by Eli Lilly. The protocol:
as §1, §2

Data set [3] shares this target. Briefly: filter; biphasic, Kd2 33 nM, mole fraction 0.55; TBSC, 37 C. The settings on record: tags: supplied by Eli Lilly. The protocol:
as §1, §2

Data set [4] has the same target. The data set can be described thus: filter; biphasic, Kd2 840 nM, mole fraction 0.50; TBSC, 37 C. The settings on record: tags: supplied by Eli Lilly. The protocol: as §1, §2
Data set [5] shares this target. The data set can be described thus: filter; biphasic, Kd2 250 nM, mole fraction 0.30; TBSC, 37 C. The settings on record: tags: supplied by Eli Lilly. The protocol: as §1, §2
Data set [6] shares this target. The data set can be described thus: filter; only low-affinity Kd2 listed; 5' G removed; TBSC, 37 C. The settings on record: tags: supplied by Eli Lilly.
The target is the same in data set [7]. Briefly: filter; biphasic, Kd2 1320 nM, mole fraction 0.50; TBSC, 37 C. The settings on record: tags: supplied by Eli Lilly. The protocol:
as §1, §2

The target is the same in data set [8]. The data set can be described thus: filter; biphasic, Kd2 82 nM, mole fraction 0.50; TBSC, 37 C. The settings on record: tags: supplied by Eli Lilly. The protocol: as §1, §2
The target is the same in data set [9]. Briefly: filter; biphasic, Kd2 92 nM, mole fraction 0.60; TBSC, 37 C. The settings on record: tags: supplied by Eli Lilly. The protocol: as §1, §2
Data set [10] shares this target. The data set can be described thus: filter; biphasic, Kd2 350 nM, mole fraction 0.70; TBSC, 37 C. To be noted: tags: supplied by Eli Lilly. The protocol: as §1, §2
For data set [11] the target is unchanged. Briefly: filter; biphasic, Kd2 240 nM, mole fraction 0.50; TBSC, 37 C. The settings on record: tags: supplied by Eli Lilly. The protocol:
as §1, §2

A further data set concerns the target neutrophil elastase (Homo sapiens, UniProt P08246 P08246:30-267). The data set can be described thus: filter; specificity control, like random RNA; TBSC. The protocol: (§3) The affinity of sPLA_2 ligands 2, 72, 80, 87, NN19 and NN19.15 (SEQ ID NOs.:11, 20, 53, 54, 64, and 117, respectively) for proteins other than sPLA_2 was determined by nitrocellulose partitioning (Tables IV and V). Like sPLA_2, hen egg white lysozyme, bFGF and elastase are small, highly cationic proteins. Bovine pancreatic PLA_2 is an evolutionarily and structurally related enzyme. […] Specificity is particularly well illustrated by the affinities for bovine pancreatic PLA_2 which is 10^4-fold less than that for human sPLA_2.
(§4) *Standard binding experiments were performed to the specified target protein in TBSC and K_d's calculated by curve fitting. The ligands bind no better than randomized RNA (30N1) to human neutrophil elastase, human basic fibroblast growth factor (bFGF), and human immunoglobulin G (IgG and C1q).

In data set [12] the target is T2, basic fibroblast growth factor (bFGF) (Homo sapiens, UniProt P09038 P09038:143-288). The data set can be described thus: filter; specificity control, like random RNA; TBSC. The protocol: as §3, §4
T2 sequence (P09038 143-288, one chain of several): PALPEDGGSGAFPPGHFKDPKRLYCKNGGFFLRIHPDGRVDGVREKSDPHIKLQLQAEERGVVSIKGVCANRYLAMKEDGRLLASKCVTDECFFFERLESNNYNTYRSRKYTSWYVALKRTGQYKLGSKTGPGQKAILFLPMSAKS
Data set [13] concerns the target T1, secretory phospholipase A2 (sPLA2). The data set can be described thus: filter; monophasic; Table V prints 1 nM; TBSC, 37 C. The settings on record: tags: supplied by Eli Lilly; hairpin with asymmetric internal loop.
Data set [14] has the same target. Briefly: filter; biphasic, Kd2 200 nM, mole fraction 0.20; calcium dependent; TBSC, 37 C. To be noted: tags: supplied by Eli Lilly. The protocol:
as §1, §2

For data set [15] the target is unchanged. Briefly: filter; biphasic, Kd2 140 nM, mole fraction 0.65; TBSC, 37 C. To be noted: tags: supplied by Eli Lilly. The protocol: as §1, §2
For data set [16] the target is unchanged. Briefly: filter; Table V prints 0.4 nM; TBSC, 37 C. The settings on record: tags: supplied by Eli Lilly.
In another data set the target is C1q (printed Clq) (Homo sapiens, UniProt P02745;P02746;P02747 P02745:23-245,P02746:28-253,P02747:29-245). Briefly: filter; specificity control, like random RNA; TBSC. To be noted: chain copies: 6. The protocol: as §3, §4
C1q (printed Clq), sequence (P02745 23-245, chain 1 of 3): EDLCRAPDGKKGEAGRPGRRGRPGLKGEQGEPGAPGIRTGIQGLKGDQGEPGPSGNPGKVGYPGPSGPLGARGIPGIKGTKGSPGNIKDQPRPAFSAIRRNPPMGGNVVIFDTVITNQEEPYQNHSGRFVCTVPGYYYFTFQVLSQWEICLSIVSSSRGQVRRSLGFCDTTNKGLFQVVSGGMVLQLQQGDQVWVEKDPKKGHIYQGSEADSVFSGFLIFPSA
C1q (printed Clq), sequence (P02746 28-253, chain 2 of 3): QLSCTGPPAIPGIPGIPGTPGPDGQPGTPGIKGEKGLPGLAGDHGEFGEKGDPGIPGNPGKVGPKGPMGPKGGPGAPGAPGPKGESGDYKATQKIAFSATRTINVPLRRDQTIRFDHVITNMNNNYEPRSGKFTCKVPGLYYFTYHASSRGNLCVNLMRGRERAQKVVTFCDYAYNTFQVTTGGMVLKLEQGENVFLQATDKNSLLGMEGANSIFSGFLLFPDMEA
C1q (printed Clq), sequence (P02747 29-245, chain 3 of 3): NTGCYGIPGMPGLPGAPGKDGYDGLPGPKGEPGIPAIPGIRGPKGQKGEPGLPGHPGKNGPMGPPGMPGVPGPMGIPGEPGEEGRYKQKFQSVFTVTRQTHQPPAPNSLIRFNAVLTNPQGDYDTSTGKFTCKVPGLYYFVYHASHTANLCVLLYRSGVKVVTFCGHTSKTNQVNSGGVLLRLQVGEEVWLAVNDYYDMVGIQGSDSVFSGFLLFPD
In a further data set the target is lysozyme (egg white) (Gallus gallus, UniProt P00698 P00698:19-147). The data set can be described thus: filter; specificity control, like random RNA; TBSC. The settings on record: tags: 6x crystallized. The protocol:
as §3
(§5) *Standard binding experiments were performed to the specified target protein in TBSC and K_d's is calculated by curve fitting. The ligands bind no better than randomized RNA (30N1) to lysozyme (hen egg-white), human basic fibroblast growth factor basic (bFGF) and bovine pancreatic PLA₂. The sPLA₂ K_d that of the high affinity species.

The target of data set [17] is pancreatic phospholipase A2 (bpPLA2) (Bos taurus, UniProt P00593 P00593:23-145). The data set can be described thus: filter; specificity control, like random RNA; TBSC. The protocol: as §3, §5
pancreatic phospholipase A2 (bpPLA2), sequence (P00593 23-145, one chain of several): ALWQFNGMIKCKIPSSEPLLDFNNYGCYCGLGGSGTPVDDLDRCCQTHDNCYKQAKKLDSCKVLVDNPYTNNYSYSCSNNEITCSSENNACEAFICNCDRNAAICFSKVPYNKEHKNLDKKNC
For data set [18], the target named is T2, basic fibroblast growth factor (bFGF). The data set can be described thus: filter; specificity control, like random RNA; TBSC. The protocol:
as §3, §5
The source holds these as a separate data set.

Data set [19] concerns the target T1, secretory phospholipase A2 (sPLA2). The data set can be described thus: filter; biphasic, Kd2 270 nM, mole fraction 0.13; Table III prints SEQ 103, Table IV SEQ 20; TBSC, 37 C. The settings on record: tags: supplied by Eli Lilly. The protocol: as §1, §2
Data set [20] shares this target. Briefly: filter; biphasic, Kd2 150 nM, mole fraction 0.2; conserved G replaced by U; TBSC, 37 C. The settings on record: tags: supplied by Eli Lilly; hairpin with asymmetric internal loop. The protocol: as §1, §2
Setting [21] is: hairpin with asymmetric internal loop.

neutrophil elastase, sequence (P08246 30-267, one chain of several): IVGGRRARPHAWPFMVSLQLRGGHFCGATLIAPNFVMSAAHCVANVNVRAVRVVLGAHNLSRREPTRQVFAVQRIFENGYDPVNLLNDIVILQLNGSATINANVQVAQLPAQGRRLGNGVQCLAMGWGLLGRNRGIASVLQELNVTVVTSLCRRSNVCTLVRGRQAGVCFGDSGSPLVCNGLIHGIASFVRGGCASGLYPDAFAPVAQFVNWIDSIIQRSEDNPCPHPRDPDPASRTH
lysozyme (egg white), sequence (P00698 19-147, one chain of several): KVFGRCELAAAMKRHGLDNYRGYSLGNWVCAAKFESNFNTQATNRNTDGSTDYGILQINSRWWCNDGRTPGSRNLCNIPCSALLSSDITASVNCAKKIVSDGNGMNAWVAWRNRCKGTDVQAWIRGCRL

B1: 87.3 (ssRNA)
RNA: GGGAGCUCAGAAUAAACGCUCAAGCUCUGGGAUGAUGCCCACUGUCCAGCAUCUUCGACAUG
What is called Kd is a measure of binding affinity in units of concentration. For B1, in data set [1], the Kd was 0.8 nM.

B2: 1 (orphan) (ssRNA)
RNA: GGGAGCUCAGAAUAAACGCUCAAGCCGAACCGAAUGGAGGUGGAGGGAUUGCGUUCGACAUGAGGCCCGGAUCCGGC
On to B2, for which the affinity in [2], expressed as Kd, was 1.4 nM.

B3: 3 (ssRNA)
RNA: GGGAGCUCAGAAUAAACGCUCAAAGCUCAUCGUCUCGCAAGGCGUAUCCUAUUUCGACAUGAGGCCCGGAUCCGGC
On to B3, for which the affinity in [3], expressed as Kd, was 1.9 nM.

B4: 87F (ssRNA)
RNA: GGGAGCUCAGAAUAAACGCUCAAGCUCUGGGAUGAUGCCCACUGUCCAGCAUCUUCGACAUGAGGCCCGGAUCCGGC
modifications: 2'-F all C and U
B4 had a dissociation constant (Kd) in data set [4] of 1.2 nM.

B5: 87.7 (ssRNA)
RNA: GGGAGCUCAGAAUAAACGCUCAAGCUCUGGGAUGAUGCCCACUGUCCAGCAUCUUCGACAUGUGUAGCUAAACAGCUUUAGGA
In the case of B5, in data set [5], the equilibrium dissociation constant (Kd) was determined as 0.8 nM.

B6: 87.4 (ssRNA)
RNA: GGAGCUCAGAAUAAACGCUCAAGCUCUGGGAUGAUGCCCACUGUCCAGCAUCUUCGACAUG
The molecule B6 showed a Kd in data set [6] of 4.35 µM.

B7: 87.5 (ssRNA)
RNA: GGGAGCUAUAAACGCAGCUCUGGGAUGAUGCCCACUGUCCAGCAUCUUCGACAUG
B7 had a Kd in data set [7] of 3.1 nM.

B8: 93 (ssRNA)
RNA: GGGAGCUCAGAAUAAACGCUCAACAGCCAAUGUGUCCCGUACGGCGUAUCCUAUUCGACAUGAGGCCCGGAUCCGGC
B8 yielded a Kd in data set [8] of 17.2 nM.

B9: 85 (ssRNA)
RNA: GGGAGCUCAGAAUAAACGCUCAAAUUGCAUCAUGUACCGCAAGACGUAUUCUAUUCGACAUGAGGCCCGGAUCCGGC
In the case of B9, in [9], binding was characterised by a dissociation constant (Kd) of 3.8 nM.

B10: 54 (ssRNA)
RNA: B9 RNA with C40U
Regarding B10, binding in [10] was put at a Kd of 16.6 nM.

B11: 18 (ssRNA)
RNA: B9 RNA with U26C
In [11], B11 came in with a Kd of 5 nM.

B12: NN19 (ssRNA)
RNA: GGGAAAAGCGAAUCAUACACAAGACCGGCCGGCGCCAUAGCCGAGAUCCGAGGUGUUGAACGAUAACUCGGUGCUCCGCCAGAGACCAACCGAGAA
modifications: 2'-NH2 all C and U
As for B12, the equilibrium dissociation constant (Kd) with neutrophil elastase (setting [21]) is 40 nM; in [12] (setting [21]), 210 nM; in data set [13], 0.4 nM.

B13: 60 (orphan) (ssRNA)
RNA: GGGAGCUCAGAAUAAACGCUCAAACAACGGCCCACACGGGAGAUCCGAGAAAAGUUCGACAUGAGGCCCGGAUCCGGC
Regarding B13, the dissociation constant Kd in [14] is 0.3 nM.

B14: 95 (ssRNA)
RNA: GGGAGCUCAGAAUAAACGCUCAACGCUGGAUACCAUCGCACGGCGUAUCCUGCUUCGACAUGAGGCCCGGAUCCGGC
B14 showed an equilibrium dissociation constant (Kd) in data set [15] of 4.5 nM.

B15: NN19.15 (ssRNA)
RNA: GGGAAAAGAAGACCGGCCGGCGCCAUAGCCGAGAUCCGAGGUGUUGCCGAGAA
modifications: 2'-NH2 all C and U
With B15, the Kd worked out at 1.7 nM in data set [16], 1000 nM with C1q (printed Clq), 40 nM with neutrophil elastase and 165 nM in data set [12].

B16: 72 (ssRNA)
RNA: GGGAGCUCAGAAUAAACGCUCAAGACCUCUGCUUACAGCCCGGCUGAGACACUUCGACAUGAGGCCCGGAUCCGGC
In the case of B16, the equilibrium dissociation constant (Kd) in the data set with lysozyme (egg white) is 1500 nM; in [17] it was 29 µM; in data set [18], 180 nM; in [19] it was 0.5 nM.

B17: NN27 (ssRNA)
RNA: GGGAAAAGCGAAUCAUACACAAGACCGGCCGGGGAAACCCGAGGUCCGAUGUAACGCAUGGCGCCUCACCGAGUCGCUCCGCCAGAGACCAACCGAGAA
modifications: 2'-NH2 all C and U
Turning to B17, in data set [20], the Kd came out at 0.4 nM.
